Literature values as cited in PMC4258470.

How the values were obtained:
[1] = target: p53 N-terminal transactivation domain (Homo sapiens) (UniProt P04637)
[2] = target: HPV16 E7 CR1-CR2 (Human papillomavirus type 16) (UniProt P03129)
Chain of HPV16 E7 CR1-CR2 (Human papillomavirus type 16) (P03129 1-40): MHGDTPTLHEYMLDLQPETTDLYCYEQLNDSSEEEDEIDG

Chain of pRb (P06400 2-928): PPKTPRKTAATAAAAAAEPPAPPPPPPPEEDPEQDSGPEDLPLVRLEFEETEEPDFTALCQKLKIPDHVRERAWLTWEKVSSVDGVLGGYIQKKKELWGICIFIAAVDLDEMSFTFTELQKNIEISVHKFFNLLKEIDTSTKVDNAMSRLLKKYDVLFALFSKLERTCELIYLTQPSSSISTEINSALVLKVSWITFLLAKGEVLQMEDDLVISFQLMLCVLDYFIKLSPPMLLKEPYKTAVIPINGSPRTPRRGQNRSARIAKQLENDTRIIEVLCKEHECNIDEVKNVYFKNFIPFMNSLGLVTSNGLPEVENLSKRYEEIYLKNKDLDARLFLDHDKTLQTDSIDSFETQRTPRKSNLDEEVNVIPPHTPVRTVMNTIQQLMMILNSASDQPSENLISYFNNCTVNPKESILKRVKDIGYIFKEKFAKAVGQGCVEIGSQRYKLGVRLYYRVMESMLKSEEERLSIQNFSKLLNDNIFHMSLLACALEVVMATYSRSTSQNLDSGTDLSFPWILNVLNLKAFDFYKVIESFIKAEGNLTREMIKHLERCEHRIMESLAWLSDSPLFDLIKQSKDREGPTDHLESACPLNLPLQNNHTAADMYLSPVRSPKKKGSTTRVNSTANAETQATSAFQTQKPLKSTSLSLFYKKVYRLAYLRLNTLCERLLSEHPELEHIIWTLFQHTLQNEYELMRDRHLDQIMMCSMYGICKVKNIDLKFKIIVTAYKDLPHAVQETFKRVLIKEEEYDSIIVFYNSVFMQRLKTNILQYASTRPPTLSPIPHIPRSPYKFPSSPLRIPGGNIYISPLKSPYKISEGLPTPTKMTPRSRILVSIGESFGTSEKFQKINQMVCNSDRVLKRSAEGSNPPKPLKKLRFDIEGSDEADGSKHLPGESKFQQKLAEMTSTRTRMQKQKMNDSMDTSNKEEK
Chain of p53 N-terminal transactivation domain (Homo sapiens) (P04637 1-61): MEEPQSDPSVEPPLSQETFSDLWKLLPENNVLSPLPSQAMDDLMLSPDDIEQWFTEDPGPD
Chain of CBP TAZ2 (P45481 1766-1847): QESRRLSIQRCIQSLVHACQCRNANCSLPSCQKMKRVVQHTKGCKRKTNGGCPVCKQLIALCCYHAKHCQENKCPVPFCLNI

Row | Substance | Kd [1] [nM] | Kd [2] [nM]
1 | CBP TAZ2 (from UniProt P45481) | 20 | –
2 | pRb (from UniProt P06400) | – | 2
